Test results: the supplement of paper PMC6757056
± gives the standard deviation of the averaged measurements.

B1: library; a variant is named by its letters at N, in order (parent)
chain: GCUGUCACCGGUGCUUGGUACGUUAUAUUCAGCCGGUCUGAUGAGUCUNNNNNNAGACGAAACAGC

What was measured:
(6R,S)-folinic acid [1] = variants of: B1; test: normalized RNA/DNA level without ligand (relative to sTRSVctl = 100) (log10 (% of sTRSVctl)); HEK293T overexpressing SLC46A1; higher = less ribozyme self-cleavage, higher mRNA level; details: without (6R,S)-folinic acid; ligand present: no
Procedure, shortened: (§1)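 RNA level was computed as RNA reads over DNA reads divided by a spiked-in non-cleaving sequence or by the top sequences, then scaled and log-transformed. Scaling was ×100 with log10, the top group was 25 sequences, and the threshold was ≥100 DNA reads. The reads came from HEK293T cells transfected at 4 µg per 6-well well with ribozyme switch library plasmids (mCherry, or eGFP in some ligand experiments). Total RNA was extracted with EDTA 72 h after transfection, with any ligand added 1 h before it.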

(6R,S)-folinic acid [2] = variants of: B1; test: normalized RNA/DNA level with ligand (relative to sTRSVctl = 100) (log10 (% of sTRSVctl)); HEK293T overexpressing SLC46A1; ligand concentration (+) RNA-Seq: 6 mM; higher = less ribozyme self-cleavage, higher mRNA level; details: with (6R,S)-folinic acid; ligand present: yes
Procedure, shortened: as §1

| Variant | normalized RNA/DNA level without ligand (log10) ((6R,S)-folinic acid [1]) | normalized RNA/DNA level with ligand (log10) ((6R,S)-folinic acid [2]) |
| --- | --- | --- |
| AUCUUC | 2.07 ± 0.022 | 2.05 ± 0.045 |
| AUCUUU | 2.07 ± 0.025 | 2.087 ± 0.017 |
| GUGCAG | 1.931 ± 0.0076 | 2.01 ± 0.021 |
| GUGCAA | 1.975 ± 0.0071 | 1.999 ± 0.01 |
| GUGCAC | 1.935 ± 0.0098 | 2 ± 0.0049 |
| GUGCAU | 1.973 ± 0.0054 | 2.02 ± 0.051 |
| UUCCAU | 1.99 ± 0.023 | 1.99 ± 0.049 |
| UUCCAG | 1.91 ± 0.021 | 1.99 ± 0.034 |
| GUCUCC | 2.032 ± 0.015 | 2.024 ± 0.0098 |
| GUCUCA | 2.0197 ± 0.0003 | 2.01 ± 0.027 |
| GUCUCU | 2.0436 ± 0.00093 | 2.03 ± 0.044 |
| AUCGCA | 2.01 ± 0.024 | 2 ± 0.032 |
| AUCGCG | 1.926 ± 0.013 | 2.02 ± 0.019 |
| AUCGCC | 2.041 ± 0.014 | 2 ± 0.053 |
| AUCCUU | 2.004 ± 0.01 | 2.02 ± 0.032 |
| AUCCUA | 1.987 ± 0.0057 | 2.01 ± 0.079 |
| AUCCUC | 2.1 ± 0.022 | 2.02 ± 0.025 |
| AUCCUG | 1.992 ± 0.0066 | 2.02 ± 0.042 |
| UUGCUC | 2.046 ± 0.01 | 2.02 ± 0.052 |
| GUGACG | 1.95 ± 0.017 | 2 ± 0.032 |
| GUGACU | 2.029 ± 0.0025 | 2.04 ± 0.041 |
| GUGAUG | 1.908 ± 0.015 | 1.99 ± 0.035 |
| GUGAUU | 2.01 ± 0.024 | 2.02 ± 0.022 |

| Variant | normalized RNA/DNA level without ligand (log10) ((6R,S)-folinic acid [1]) | normalized RNA/DNA level with ligand (log10) ((6R,S)-folinic acid [2]) |
| --- | --- | --- |
| GUGAUC | 2.03 ± 0.021 | 2.036 ± 0.02 |
| UUCUUU | 2.047 ± 0.0094 | 2.04 ± 0.035 |
| UUCUUA | 2.032 ± 0.02 | 2.02 ± 0.081 |
| UUCUUG | 1.914 ± 0.0095 | 2.02 ± 0.023 |
| UUCUUC | 2.05 ± 0.028 | 1.996 ± 0.012 |
| CUCUUG | 2.04 ± 0.021 | 2.03 ± 0.028 |
| CUCUUC | 2.063 ± 0.0046 | 2.01 ± 0.024 |
| CUCUUU | 2.013 ± 0.011 | 2.02 ± 0.041 |
| GUCGGA | 1.997 ± 0.0032 | 2.02 ± 0.045 |
| GUCGGC | 2.004 ± 0.0028 | 2.03 ± 0.025 |
| GUCGGG | 1.998 ± 0.011 | 2.05 ± 0.051 |
| GUCGGU | 2.018 ± 0.0045 | 2.06 ± 0.027 |
| AUCUGU | 2.004 ± 0.0032 | 2.06 ± 0.056 |
| AUCUGC | 2.06 ± 0.028 | 2.05 ± 0.052 |
| AUCUGA | 2.021 ± 0.016 | 2.02 ± 0.058 |
| UUCUAU | 1.994 ± 0.0097 | 2.05 ± 0.04 |
| UUCUAC | 2.03 ± 0.029 | 1.98 ± 0.061 |
| AUCUAG | 1.974 ± 0.013 | 2.021 ± 0.0074 |
| AUCUAA | 2.0002 ± 0.0016 | 2.01 ± 0.042 |
| AUCUAC | 2.013 ± 0.0088 | 2.03 ± 0.039 |
| AUCUAU | 2.0163 ± 0.0016 | 2.03 ± 0.041 |
| AUCCAG | 1.981 ± 0.0027 | 2 ± 0.031 |
| AUCCAU | 1.991 ± 0.0092 | 2.01 ± 0.042 |

| Variant | normalized RNA/DNA level without ligand (log10) ((6R,S)-folinic acid [1]) | normalized RNA/DNA level with ligand (log10) ((6R,S)-folinic acid [2]) |
| --- | --- | --- |
| UUGCAA | 1.96 ± 0.0066 | 1.987 ± 0.0035 |
| UUGCAC | 2.008 ± 0.015 | 2.02 ± 0.026 |
| UUGCAU | 1.975 ± 0.0029 | 2.01 ± 0.043 |
| CUGAGG | 1.948 ± 0.005 | 2.02 ± 0.029 |
| CUGAGC | 2.0258 ± 0.00095 | 2.01 ± 0.019 |
| CUGAGU | 2.052 ± 0.016 | 2.058 ± 0.015 |
| CUGAAU | 1.96 ± 0.003 | 1.99 ± 0.045 |
| CUGAAC | 1.99 ± 0.035 | 1.99 ± 0.024 |
| CUGAAG | 1.881 ± 0.0031 | 1.995 ± 0.0079 |
| CUGACG | 2 ± 0.006 | 2.046 ± 0.02 |
| CUGACA | 1.996 ± 0.01 | 2.03 ± 0.022 |
| CUGACU | 2.028 ± 0.004 | 2 ± 0.023 |
| CUGACC | 2.05 ± 0.017 | 2.01 ± 0.033 |
| UUCCUU | 2.02 ± 0.017 | 2.034 ± 0.018 |
| UUCCUA | 2.022 ± 0.0051 | 2.033 ± 0.011 |
| UUCCUC | 2.096 ± 0.011 | 2.062 ± 0.02 |
| CUCGCG | 2.038 ± 0.016 | 2.03 ± 0.038 |
| CUCGCC | 2.1 ± 0.027 | 2.07 ± 0.054 |
| AUGACC | 2.046 ± 0.0045 | 2.024 ± 0.014 |
| CUCCAU | 2.021 ± 0.011 | 2.03 ± 0.0026 |
| CUCCAG | 2.033 ± 0.011 | 2.0495 ± 0.00031 |
| CUCGGA | 2.044 ± 0.0022 | 2.0131 ± 0.00036 |
| CUCGGU | 2.03 ± 0.034 | 2.02 ± 0.028 |

| Variant | normalized RNA/DNA level without ligand (log10) ((6R,S)-folinic acid [1]) | normalized RNA/DNA level with ligand (log10) ((6R,S)-folinic acid [2]) |
| --- | --- | --- |
| CUCGGC | 2.05 ± 0.027 | 2.04 ± 0.034 |
| CUCGGG | 2.0341 ± 0.00097 | 2.07 ± 0.046 |
| UUGAAU | 1.955 ± 0.0032 | 2.01 ± 0.025 |
| UUGAAC | 2 ± 0.023 | 2.025 ± 0.016 |
| UUCGUC | 2.1 ± 0.024 | 2.06 ± 0.068 |
| UUCGUU | 2.009 ± 0.013 | 1.98 ± 0.042 |
| UUCGUG | 1.81 ± 0.027 | 1.99 ± 0.067 |
| UUCGUA | 1.96 ± 0.025 | 1.97 ± 0.02 |
| GUGCUA | 1.994 ± 0.0059 | 1.98 ± 0.04 |
| GUGCUC | 2.05 ± 0.032 | 2.01 ± 0.045 |
| GUCCGC | 2.07 ± 0.011 | 2.045 ± 0.0035 |
| GUCCGU | 2.02 ± 0.021 | 2.022 ± 0.012 |
| GUCUUC | 2.073 ± 0.0035 | 2.027 ± 0.0036 |
| GUCUUU | 2.047 ± 0.0022 | 2.04 ± 0.064 |
| GUCUUA | 2.03 ± 0.025 | 2.034 ± 0.013 |
| UUCGCG | 1.91 ± 0.029 | 1.968 ± 0.0034 |
| UUCGCA | 1.988 ± 0.016 | 2 ± 0.048 |
| UUCGCC | 2.017 ± 0.0095 | 2.01 ± 0.025 |
| UUCGCU | 1.981 ± 0.014 | 1.99 ± 0.026 |
| CUCUCG | 2.05 ± 0.014 | 2.014 ± 0.0035 |
| CUCUCC | 2.1 ± 0.025 | 2.07 ± 0.022 |
| CUCUCU | 2.025 ± 0.017 | 2.019 ± 0.0069 |
| CUCUCA | 2.05 ± 0.015 | 2.02 ± 0.057 |

| Variant | normalized RNA/DNA level without ligand (log10) ((6R,S)-folinic acid [1]) | normalized RNA/DNA level with ligand (log10) ((6R,S)-folinic acid [2]) |
| --- | --- | --- |
| GUGAAC | 1.908 ± 0.0094 | 2.012 ± 0.0064 |
| AUGCGC | 2.017 ± 0.0084 | 2.009 ± 0.018 |
| GUGCCC | 2.032 ± 0.012 | 2.02 ± 0.074 |
| GUGCCA | 2.057 ± 0.015 | 2.006 ± 0.0095 |
| GUGCCU | 2.02 ± 0.024 | 1.98 ± 0.039 |
| AUCCCC | 2.047 ± 0.013 | 2.01 ± 0.05 |
| AUCCCU | 2.039 ± 0.0098 | 2.027 ± 0.012 |
| AUCCCA | 2.022 ± 0.0087 | 2.03 ± 0.036 |
| AUCCCG | 2.01 ± 0.0024 | 2.01 ± 0.029 |
| AUGCAG | 1.92 ± 0.022 | 2 ± 0.032 |
| AUGCAU | 1.934 ± 0.011 | 2.006 ± 0.005 |
| UUGCCG | 1.974 ± 0.0045 | 2.03 ± 0.038 |
| UUGCCA | 2.024 ± 0.013 | 2.042 ± 0.02 |
| UUGCCC | 2.04 ± 0.031 | 2.03 ± 0.036 |
| UUGCCU | 2.07 ± 0.028 | 2.07 ± 0.024 |
| GUGAGU | 1.96 ± 0.025 | 2.03 ± 0.025 |
| GUGAGC | 1.74 ± 0.024 | 1.962 ± 0.011 |
| CUGCUA | 2.02 ± 0.021 | 2.05 ± 0.031 |
| CUGCUC | 2.11 ± 0.053 | 2.02 ± 0.034 |
| UUCCCA | 2.034 ± 0.0022 | 2.03 ± 0.04 |
| UUCCCC | 2.058 ± 0.019 | 1.99 ± 0.022 |
| UUCCCU | 2.058 ± 0.011 | 2.06 ± 0.048 |
| UUCCCG | 1.972 ± 0.0089 | 2 ± 0.038 |
